Assays:
ERK2 = ERK2 (Homo sapiens, UniProt P28482); experiment: FP-based binding affinity measurements with ERK2, direct titration
[1] = biological target: ERK5 kinase domain, ERK5-(1–431) (Homo sapiens, UniProt Q13164); experiment: Fluorescence polarization; settings: FP-based binding affinity measurements
Chain of ERK5 kinase domain, ERK5-(1–431) (Q13164 1-431): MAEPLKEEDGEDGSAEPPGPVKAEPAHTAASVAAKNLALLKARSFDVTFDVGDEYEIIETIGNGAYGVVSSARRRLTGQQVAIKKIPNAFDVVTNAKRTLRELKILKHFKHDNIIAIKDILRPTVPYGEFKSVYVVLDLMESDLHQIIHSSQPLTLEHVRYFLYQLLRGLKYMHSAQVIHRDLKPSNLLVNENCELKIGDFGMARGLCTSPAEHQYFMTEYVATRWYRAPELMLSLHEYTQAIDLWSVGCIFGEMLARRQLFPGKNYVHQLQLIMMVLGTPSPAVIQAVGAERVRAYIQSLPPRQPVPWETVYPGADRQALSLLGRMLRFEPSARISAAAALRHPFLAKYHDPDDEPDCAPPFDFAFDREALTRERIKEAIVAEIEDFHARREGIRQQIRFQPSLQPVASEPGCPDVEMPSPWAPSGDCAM

Chain of ERK2 (P28482 whole entry, the tested form may be a part): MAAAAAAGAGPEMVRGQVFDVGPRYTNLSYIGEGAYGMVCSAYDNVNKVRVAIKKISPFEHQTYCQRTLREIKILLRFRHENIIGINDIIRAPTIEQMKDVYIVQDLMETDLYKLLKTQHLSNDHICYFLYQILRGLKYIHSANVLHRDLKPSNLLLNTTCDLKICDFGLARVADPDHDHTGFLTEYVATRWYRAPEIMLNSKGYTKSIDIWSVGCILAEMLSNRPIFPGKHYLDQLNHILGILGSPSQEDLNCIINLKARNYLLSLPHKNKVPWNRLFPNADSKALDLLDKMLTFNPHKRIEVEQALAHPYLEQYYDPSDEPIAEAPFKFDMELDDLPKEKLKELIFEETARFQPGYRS

B1: PB1-D: MKK5 construct (16–130) comprised of the PB1 domain and the linear D-motif (protein, UniProt Q13163 16-130, looked up, fragment)
chain: VLVIRIKIPNSGAVDWTVHSGPQLLFRDVLDVIGQVLPEATTTAFEYEDEDGDRITVRSDEEMKAMLSYYYSTVMEQQVNGQLIEPLQIFPRACKPPGERNIHGLKVNTRAGPSQ
modifications: PB1 domain and D-motif
- Binding to ERK2 (result in words) (ERK2): did not bind
- Binding to ERK5 (result in words) [1]: submicromolar affinity

— paper PMC3605678 (The Journal of Biological Chemistry, 2013)
